Results on seven sequences are retold here after article PMC12623338.

This data set relates to T1, CrsR (response regulator of CrsRK) (Actinosynnema pretiosum X47), ORF:a04a2703.
T1 sequence: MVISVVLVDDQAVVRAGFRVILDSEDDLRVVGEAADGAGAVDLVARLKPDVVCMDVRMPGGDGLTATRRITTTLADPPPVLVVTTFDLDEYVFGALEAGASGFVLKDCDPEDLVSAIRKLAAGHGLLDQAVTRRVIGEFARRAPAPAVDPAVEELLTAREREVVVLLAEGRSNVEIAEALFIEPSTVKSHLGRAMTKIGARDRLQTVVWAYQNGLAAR
As to the kind of experiment: EMSA. To be noted: EMSA: 50-100 fmol probe, 0.5-1 ug CrsR, binding buffer with poly(dI-dC) (salt and pH not stated), 20 min at room temperature, 8% native PAGE; protein dialyzed ….
As for “GGAGGGACGAGCGGAGACCGGGTCGCGGGACTCCACTTCGGACGGTAGGGCACGCGGGCGCCGTTGGCAGTTGCCGCTTCCACGGCTGGCGAACAAAGCGGTAATCCCTTGCGCCACAGGCGATTGACACCCCGGCGAGGCCCTGGTTTCACTGCTGTCCGCACGTCACCGGCGCGAGGAGGCCCCCGTGAAGTACATGCTGCTCATCCAC (double strand) [asm21 promoter probe]”, the binding entry is on record as “binds”.

Turning to “CGGACAGACCGATCCCCGAGTCGTGCGGGCCCGAGCCGTGGACGCGCGGGCCGTGGACGCGCGAGCCGCGACCGCCGCCCCCACGACCGCCGCCCCCACGACCGCCGCTCCGGCGACCACTGCTCCGGCGACCGCCGCTCCGGCGACCGCCGCTCCGGCGACCGCCGCTCCGGCGACCGCCGCCCCCACGACCACTCCTCCGCGCCCCCGCGTCCCCCAGGCCCCCGCGCCCCACCGGCACGTTCCGGGCGCGACCTACGACCGGGCCGTGCTGTTCGACCTCGACGGG (double strand) [asm45 promoter probe (asm45-47)]”, the binding entry was “binds”.

For the sequence “TGACGGCGTCGGGTGAGGCCGCCGCTGGCCCTGGGACGGCGCTGCGCGCCCCCTCGGACCCACCGGAGCCGCCACCACCGCTTGTCCCCTTCCACCGGGTGGGGCGCGGTCGGTAATCCGGCGGCAATTCCTTCCCCCGTCCGGGCTAGCCAGGCCCGTGCGCCCGCGTCGCGCACGGGCCAAGGTGGGTGGCTGCGCGGATGACCGGGCCCCCGAACCGGATGTGGGAGAGATGCTGCGAAGCGAC (double strand) [asmA promoter probe]”, the binding entry was “no binding”.

As to “CGGTCCACCAGCCGCATCCCTCGCCTCCCCCGCGTCCGCCCCGCCGACCTTCAGGCATGTCAACAGCCCTGTCAGTCGTCTTGTCCACGCCCCGACCACCGCACCCCCACTGGCCGCCCACCCGCGCCGGGAAAACCACGAAGTCCCCTGCCGCGCGGGCGTCCCAGGTCGGACACTCCTGAGCGCACCCCCGCACCCGTTCCAGGAGGC (double strand) [asm7 promoter probe]”, the binding result is recorded as “no binding”.

As for “GGTCGGGCACCAGGAACACCTCGCAGAGCGCAAAGACGTGAGTGGACGGTGCGATTGTGCTGACGGCCTGACCCCGGTGGTGGGGACCGCGGCGAACCGGCTGAACGCAGGGGGGACCTAGGGGGGCGTCAGGGGGTTGGGGGGCTCTTCCGGCCGCCGTTAGCTTCGGGCCGCGCACCGGCCCCCGGAGAGCGCGCCGGACCGAGAGCAGAGACGAGGGCGACCGACCGTGCACCTGAAGGCCCCGCAGAAGCT (double strand) [asm24 promoter probe]”, the binding entry was “no binding”.

As to “CCGGTTCCCGTTCATCCAATTGTGCGCACGACCGCGCCGCCGTGCCCGCGTGCTGCGGTGATGGCCTGGGAACAGGGGGGATTAGGGGGAGGTCAAGGGGGTTGGTCGGGATCTGCGGAATCGGTAGCGTCGAATTCCGAAAGCCGGCCGCGGTGAATTCCCCCGCGCCATTTCCGCGAACGACGGGACAGGGGCTCATGGGCA (double strand) [asm43 promoter probe (asm43-44)]”, the binding entry is listed as “binds”.

Take “ACTCGGTCGCCGTGGTCATGGCTACAGCCAACAACCTCGACCATGGTGGAGGTCAACAGTAAGGTTGAGCTGGTGAGCAAGTTGCCGGAGATGTTGACCATCGGCCAGGTCGCCGAGCGCAGCGGGGTGCCCCACACGGCGCTGCGGTTCTACGAGGAGCGCGGGCTGATCGCCTCGGAGCGCACGGCGGGCAACCAGCGCCGCTACCCCAGGCACGTGCTGCGCAGGCTCGCGTTCATCCGCACCGCGCAGCGGGTCGGGCTGAGCCTGGAGGAGGTGCG (double strand) [asm13 promoter probe (asm13-15, asm10-12)]”: the binding entry was “no binding”.
